The text below walks through data of article PMC10765961 (2024).

Holding throughout (test): microscale thermophoresis
On the technique in general: Microscale thermophoresis detects binding through changes in fluorescence in a small temperature gradient.

One assay addresses EPHA2ΔC ECD (Homo sapiens, UniProt P29317).
In another assay the target is EPHA2 (Homo sapiens, UniProt P29317).
The target of assay [1] is T1, EPHA2ΔN intracellular region (Homo sapiens, UniProt P29317).
T1 chain: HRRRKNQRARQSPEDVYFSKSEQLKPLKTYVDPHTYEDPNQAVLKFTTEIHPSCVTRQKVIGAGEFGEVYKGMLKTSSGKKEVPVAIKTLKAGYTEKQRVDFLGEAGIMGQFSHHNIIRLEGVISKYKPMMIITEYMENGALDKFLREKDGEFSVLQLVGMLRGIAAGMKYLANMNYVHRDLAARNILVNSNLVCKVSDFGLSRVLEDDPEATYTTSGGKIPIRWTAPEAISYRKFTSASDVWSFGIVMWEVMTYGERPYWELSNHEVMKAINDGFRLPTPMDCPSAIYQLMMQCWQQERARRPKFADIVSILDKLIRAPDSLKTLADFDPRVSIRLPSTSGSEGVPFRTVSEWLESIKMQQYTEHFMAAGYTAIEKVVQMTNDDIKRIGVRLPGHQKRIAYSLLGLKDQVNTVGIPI

What is called Kd is the constant that tells how readily two partners part at equilibrium. A high value points to lower affinity.

Sequence of EPHA2ΔC ECD (P29317 24-537, stated change not applied): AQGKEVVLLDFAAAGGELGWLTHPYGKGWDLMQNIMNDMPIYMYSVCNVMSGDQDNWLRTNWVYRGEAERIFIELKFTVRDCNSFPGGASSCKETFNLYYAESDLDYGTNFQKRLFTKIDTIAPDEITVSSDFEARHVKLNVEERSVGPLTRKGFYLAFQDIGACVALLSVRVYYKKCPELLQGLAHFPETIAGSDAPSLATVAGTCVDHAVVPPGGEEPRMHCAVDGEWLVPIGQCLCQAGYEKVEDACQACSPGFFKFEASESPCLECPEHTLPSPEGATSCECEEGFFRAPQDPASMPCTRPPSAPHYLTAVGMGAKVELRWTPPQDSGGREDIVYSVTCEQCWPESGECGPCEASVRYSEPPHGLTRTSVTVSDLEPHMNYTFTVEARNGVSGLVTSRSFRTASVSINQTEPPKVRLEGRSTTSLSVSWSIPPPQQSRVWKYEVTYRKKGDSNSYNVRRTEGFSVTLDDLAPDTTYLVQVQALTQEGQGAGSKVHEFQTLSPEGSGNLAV

B1: Claudin-1 (protein)
chain: MANAGLQLLGFILAFLGWIGAIVSTALPQWRIYSYAGDNIVTAQAMYEGLWMSCVSQSTGQIQCKVFDSLLNLSSTLQATRALMVVGILLGVIAIFVATVGMKCMKCLEDDEVQKMRMAVIGGAIFLLAGLAILVATAWYGNRIVQEFYDPMTPVNARYEFGQALFTGWAAASLCLLGGALLCCSCPRKTTSYPTPRPYPKPAPSSGKDYV
modifications: Cy3-labeled CLDN1
Consider B1, for which the results for the dissociation constant (Kd) (in the assay with EPHA2ΔC ECD; with EPHA2; in assay [1]) were 582 nM, 150 nM and 125 nM, respectively.
